# Measured values as given in article doi:10.1101/2022.01.13.476167v2.
# Experiments:
# purified protein [1] = substrate: CCCCCCCC(=O)N[C@H]1CCOC1=O; assay: purified protein; details: 0.05 M phosphate buffer, pH 7.0, 35 °C
# purified protein [2] = substrate: CCCCCC(=O)N[C@H]1CCOC1=O; assay: purified protein; details: 0.05 M phosphate buffer, pH 7.0, 35 °C
protein,measurement,setting,value
ecPGA (Escherichia coli penicillin G acylase) (Escherichia coli) (protein) chain 1: EQSSSEIKIVRDEYGMPHIYANDTWHLFYGYGYVVAQDRLFQMEMARRSTQGTVAEVLGKDFVKFDKDIRRNYWPDAIRAQIAALSPEDMSILQGYADGMNAWIDKVNTNPETLLPKQFNTFGFTPKRWEPFDVAMIFVGTMANRFSDSTSEIDNLALLTALKDKYGVSQGMAVFNQLKWLVNPSAPTTIAVQESNYPLKFNQQNSQTA chain 2: SNMWVIGKSKAQDAKAIMVNGPQFGWYAPAYTYGIGLHGAGYDVTGNTPFAYPGLVFGHNGVISWGSTAGFGDDVDIFAERLSAEKPGYYLHNGKWVKMLSREETITVKNGQAETFTVWRTVHGNILQTDQTTQTAYAKSRAWDGKEVASLLAWTHQMKAKNWQEWTQQAAKQALTINWYYADVNGNIGYVHTGAYPDRQSGHDPRLPVPGTGKWDWKGLLPFEMNPKVYNPQSGYIANWNNSPQKDYPASDLFAFLWGGADRVTEIDRLLEQKPRLTADQAWDVIRQTSRQDLNLRLFLPTLQAATSGLTQSDPRRQLVETLTRWDGINLLNDDGKTWQQPGSAILNVWLTSMLKRTVVAAVPMPFDKWYSASGYETTQDGPTGSLNISVGAKILYEAVQGDKSPIPQAVDLFAGKPQQEVVLAALEDTWETLSKRYGNNVSNWKTPAMALTFRANNFFGVPQAAAEETRHQAEYQNRGTENDMIVFSPTTSDRPVLAWDVVAPGQSGFIAPDGTVDKHYEDQLKMYENFGRKSLWLTKQDVEAHKESQEVLHVQR,Km,purified protein [1],700 ± 40 µM
same,kcat,purified protein [1],0.0085 ± 0.0003 s⁻¹
same,Km,purified protein [2],590 ± 70 µM
same,kcat,purified protein [2],0.0090 ± 0.0003 s⁻¹
